Test results as given in patent publication US20230255948A1.

Tests used:
[1] = target: α4β1 integrin on mouse B16 melanoma cells and mouse RAW macrophage cells (mouse) (UniProt Q00651); assay: cell-based or functional assay
[2] = target: α9β1 integrin on mouse RAW macrophage cells (mouse) (UniProt B8JK39); assay: cell-based or functional assay
Sequence of α9β1 integrin on mouse RAW macrophage cells (mouse) (B8JK39 29-1036, chain 1 of 2): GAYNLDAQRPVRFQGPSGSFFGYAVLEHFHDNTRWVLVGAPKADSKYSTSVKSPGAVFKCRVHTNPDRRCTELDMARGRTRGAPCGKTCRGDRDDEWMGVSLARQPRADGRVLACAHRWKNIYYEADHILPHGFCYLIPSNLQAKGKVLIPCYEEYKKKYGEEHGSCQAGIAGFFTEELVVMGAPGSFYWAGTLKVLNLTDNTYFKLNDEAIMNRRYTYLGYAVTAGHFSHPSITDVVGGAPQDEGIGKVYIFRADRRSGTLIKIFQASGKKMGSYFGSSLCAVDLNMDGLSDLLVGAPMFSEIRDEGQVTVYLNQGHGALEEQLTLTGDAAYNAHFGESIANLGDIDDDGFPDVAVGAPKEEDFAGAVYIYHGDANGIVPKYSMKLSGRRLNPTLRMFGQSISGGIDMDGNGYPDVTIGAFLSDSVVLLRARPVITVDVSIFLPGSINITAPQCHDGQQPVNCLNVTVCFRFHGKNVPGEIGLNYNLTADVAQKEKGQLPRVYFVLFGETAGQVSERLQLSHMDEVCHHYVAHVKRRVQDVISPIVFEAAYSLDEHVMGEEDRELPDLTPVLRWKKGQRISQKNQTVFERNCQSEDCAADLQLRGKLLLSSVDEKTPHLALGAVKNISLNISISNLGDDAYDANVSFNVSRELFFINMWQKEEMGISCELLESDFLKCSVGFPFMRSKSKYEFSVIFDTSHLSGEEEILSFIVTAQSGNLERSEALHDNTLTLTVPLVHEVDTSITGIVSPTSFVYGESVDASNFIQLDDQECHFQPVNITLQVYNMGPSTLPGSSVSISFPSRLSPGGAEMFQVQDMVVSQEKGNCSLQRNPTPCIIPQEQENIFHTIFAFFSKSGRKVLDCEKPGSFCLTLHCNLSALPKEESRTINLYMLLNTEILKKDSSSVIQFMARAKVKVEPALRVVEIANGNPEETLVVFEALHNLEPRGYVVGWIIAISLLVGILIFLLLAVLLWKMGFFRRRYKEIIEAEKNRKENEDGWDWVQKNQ
Sequence of α9β1 integrin on mouse RAW macrophage cells (mouse) (P09055 21-798, chain 2 of 2, further chain): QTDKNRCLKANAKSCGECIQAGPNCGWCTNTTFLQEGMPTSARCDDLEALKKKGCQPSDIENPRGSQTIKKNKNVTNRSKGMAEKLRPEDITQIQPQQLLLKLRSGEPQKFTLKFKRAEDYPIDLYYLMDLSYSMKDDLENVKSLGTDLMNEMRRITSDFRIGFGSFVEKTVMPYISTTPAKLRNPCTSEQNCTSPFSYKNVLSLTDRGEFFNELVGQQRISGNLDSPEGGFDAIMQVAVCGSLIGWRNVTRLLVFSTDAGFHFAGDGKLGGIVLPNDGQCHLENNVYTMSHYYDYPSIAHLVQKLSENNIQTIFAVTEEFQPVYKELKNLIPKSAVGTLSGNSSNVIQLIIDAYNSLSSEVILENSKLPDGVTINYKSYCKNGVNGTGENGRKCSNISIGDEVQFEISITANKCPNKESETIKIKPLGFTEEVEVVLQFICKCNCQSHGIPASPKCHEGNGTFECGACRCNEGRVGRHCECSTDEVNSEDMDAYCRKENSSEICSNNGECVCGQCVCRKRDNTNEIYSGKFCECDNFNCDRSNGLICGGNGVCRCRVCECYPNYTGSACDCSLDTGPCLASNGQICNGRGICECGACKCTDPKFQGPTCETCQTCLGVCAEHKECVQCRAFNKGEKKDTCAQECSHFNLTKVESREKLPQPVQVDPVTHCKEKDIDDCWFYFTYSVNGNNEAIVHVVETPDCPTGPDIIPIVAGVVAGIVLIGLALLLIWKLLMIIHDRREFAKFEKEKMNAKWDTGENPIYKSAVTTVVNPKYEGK

Sequence of α4β1 integrin on mouse B16 melanoma cells and mouse RAW macrophage cells (mouse) (Q00651 41-1039, chain 1 of 2): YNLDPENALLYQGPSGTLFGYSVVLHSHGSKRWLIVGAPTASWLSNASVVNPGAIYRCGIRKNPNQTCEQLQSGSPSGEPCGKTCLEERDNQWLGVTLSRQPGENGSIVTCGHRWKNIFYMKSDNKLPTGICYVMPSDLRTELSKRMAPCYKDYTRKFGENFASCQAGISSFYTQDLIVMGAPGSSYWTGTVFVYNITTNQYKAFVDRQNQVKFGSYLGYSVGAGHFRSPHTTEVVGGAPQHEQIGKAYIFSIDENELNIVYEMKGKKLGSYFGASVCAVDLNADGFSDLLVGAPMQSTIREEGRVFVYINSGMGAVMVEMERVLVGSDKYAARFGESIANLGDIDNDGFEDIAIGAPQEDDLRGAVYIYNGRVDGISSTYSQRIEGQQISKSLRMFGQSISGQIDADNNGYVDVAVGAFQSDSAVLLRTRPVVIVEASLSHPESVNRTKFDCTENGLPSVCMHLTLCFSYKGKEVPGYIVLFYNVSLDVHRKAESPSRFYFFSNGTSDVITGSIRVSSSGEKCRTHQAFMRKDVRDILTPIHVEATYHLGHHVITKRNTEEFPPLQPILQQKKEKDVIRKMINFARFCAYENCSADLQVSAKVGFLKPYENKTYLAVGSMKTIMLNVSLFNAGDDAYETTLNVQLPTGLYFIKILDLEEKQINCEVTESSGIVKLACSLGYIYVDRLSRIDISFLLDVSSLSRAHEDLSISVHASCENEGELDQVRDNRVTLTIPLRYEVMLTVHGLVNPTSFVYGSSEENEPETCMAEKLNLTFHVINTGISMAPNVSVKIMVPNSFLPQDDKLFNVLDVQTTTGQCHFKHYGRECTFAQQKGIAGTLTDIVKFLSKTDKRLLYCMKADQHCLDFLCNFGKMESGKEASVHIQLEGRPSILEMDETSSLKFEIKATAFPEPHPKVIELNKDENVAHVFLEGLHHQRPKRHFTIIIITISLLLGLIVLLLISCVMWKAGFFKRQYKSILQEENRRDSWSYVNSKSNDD
Sequence of α4β1 integrin on mouse B16 melanoma cells and mouse RAW macrophage cells (mouse) (P09055 21-798, chain 2 of 2, further chain): as the sequence (P09055 21-798, chain 2 of 2, further chain) above

- PGE2 secretion in RAW cells [1]: 4.2 fold
- PGE2 secretion in RAW cells [2]: 4.2 fold
Substance: OPN-RRAA (OPN-R in which the RGD sequence has been mutated to RAA) (ligand)
